Reference: patent publication EP4631974A1 (Nanjing Vazyme Biotech Co., Ltd., dated 2025)

Assays:
RSV A2 pre-F protein [1] = molecular target: T1, RSV A2 pre-F protein (respiratory syncytial virus (RSV) A2, UniProt P03420 26-513); assay: ELISA, plate-coated RSV A2 pre-F, anti-human IgG Fc-HRP detection
T1 construct: House-made by Vazyme; also called RSV 2A pre-F protein

RSV A2 pre-F protein [2] = molecular target: T1, RSV A2 pre-F protein; assay: ELISA, plate-coated RSV A2 pre-F, anti-human IgG Fc-HRP detection (2-fold dilutions from 1 ug/mL)

B1: F6-210 (antibody, V domains shown)
VH: QERLAQSGTEVKKPGASVKVSCRALGYTFSDYSIHWVRQAPRQGLEWMGKINTSGGTTTYAQKFQARVTLTSDTSTSTASMELSSLKIEDTAVYYCVAYERATTLAGAGASDIWGQGTLVTVSS
VL: DIVMTQSPLSLPVTPGEPASISCRSSQSLLHSDGYNYLDWYLQKPGQSPHLLIYLGSNRASGVPDRFSGSGSGTDFTLKITRVEPEDVGVYYCMQSLQTPFTFGPGTKVDVKR
notes: Human IgG1 expressed in CHO cells; heavy = VH + IgG1 constant region, light = VL + CL
In the case of B1, the EC50 (RSV A2 pre-F protein [1]) is reported as 0.028 µg/mL.

B2: F6-63 (antibody, V domains shown)
VH: QVQVVESGGGVVEPGGSLSLSCAASGFSFKMHAMHWVRQAPGKGLEWVAFIPYDGSSQYYADSVKGRFTIYRDNFKNTLYLQMNSLRVEDTSLYYCARGGEEGAWSWIGYNSYMDVWGRGTAVTVSS
VL: QSALTQPASVSGSPGQSITISCSGTSSDVGGYDYVCWYQKHPGESPRLIIYDVSRRPSGVSNRFSGSKSGNTASLTISGLQAEDEADYSCSSYTSSNTLIFGGGTKLTVLG
notes: as for B1
Work on B2 yielded an EC50 (RSV A2 pre-F protein [2]) of 0.016 µg/mL.
